Assay results from article PMC10397247.
Like-named read-outs stand apart in the source and are kept apart here. Blank lines part the entries; values can stand above or below the binder they belong to.

Experiments:
[1] = biological target: T1, 4H3939-AA; test: two-hybrid library CCmax; settings: mean of both orientations;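 further: natural log of median RNA to DNA barcode read ratio; higher means stronger binding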
T1 chain: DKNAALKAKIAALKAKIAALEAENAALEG

[2] = biological target: T2, 4H483-AA; test: two-hybrid library CCmax; settings: mean of both orientations;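 further: natural log of median RNA to DNA barcode read ratio; higher means stronger binding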
T2 chain: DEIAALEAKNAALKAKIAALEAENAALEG

[3] = biological target: T3, 4H63-AA; test: two-hybrid library CCmax; settings: mean of both orientations;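 further: natural log of median RNA to DNA barcode read ratio; higher means stronger binding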
T3 chain: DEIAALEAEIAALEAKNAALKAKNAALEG

[4] = biological target: T4, 4H3915-AA; test: two-hybrid library CCmax; settings: mean of both orientations;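 further: natural log of median RNA to DNA barcode read ratio; higher means stronger binding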
T4 chain: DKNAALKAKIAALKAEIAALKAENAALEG

[5] = biological target: T5, 4H446-AA; test: two-hybrid library CCmax; settings: mean of both orientations
T5 chain: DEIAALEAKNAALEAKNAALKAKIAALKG

[6] = biological target: T6, 4H432-AA; test: two-hybrid library CCmax; settings: mean of both orientations
T6 chain: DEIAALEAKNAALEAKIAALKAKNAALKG

[7] = biological target: T7, 4H380-AA; test: two-hybrid library CCmax
T7 chain: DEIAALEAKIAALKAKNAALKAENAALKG

[8] = biological target: T8, 4H3629-AA; test: two-hybrid library CCmax
T8 chain: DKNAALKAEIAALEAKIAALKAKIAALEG

[9] = biological target: T9, 4H3969-AA; test: two-hybrid library CCmax; settings: mean of both orientations
T9 chain: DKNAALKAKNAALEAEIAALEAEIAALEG

[10] = biological target: T10, 4H3777-AA; test: two-hybrid library CCmax; settings: mean of both orientations
T10 chain: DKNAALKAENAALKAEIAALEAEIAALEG

[11] = biological target: T11, 4H464-AA; test: two-hybrid library CCmax; settings: mean of both orientations
T11 chain: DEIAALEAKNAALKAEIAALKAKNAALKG

[12] = biological target: T12, 4H3974-AA; test: two-hybrid library CCmax; settings: mean of both orientations
T12 chain: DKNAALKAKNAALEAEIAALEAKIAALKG

[13] = biological target: T13, 4H3782-AA; test: two-hybrid library CCmax; settings: mean of both orientations
T13 chain: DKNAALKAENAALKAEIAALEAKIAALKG

[14] = biological target: GCN2_T; test: two-hybrid library CCmax
[15] = biological target: 4H_GCN4; test: two-hybrid library CCmax
[16] = biological target: T14, 4H_APH; test: two-hybrid library CCmax; settings: mean of both orientations
T14 chain: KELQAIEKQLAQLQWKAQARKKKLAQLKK

[17] = biological target: T15, 4H_BCR; test: two-hybrid library CCmax; settings: mean of both orientations
T15 chain: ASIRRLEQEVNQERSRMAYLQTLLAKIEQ

[18] = biological target: T16, 4H56-AA; test: two-hybrid library CCmax
T16 chain: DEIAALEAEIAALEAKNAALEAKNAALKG

[19] = biological target: T17, 4H3718-AA; test: two-hybrid library CCmax; settings: mean of both orientations
T17 chain: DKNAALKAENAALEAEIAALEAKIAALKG

[20] = biological target: T18, 4H3697-AA; test: two-hybrid library CCmax; settings: mean of both orientations
T18 chain: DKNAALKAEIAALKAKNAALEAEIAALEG

[21] = biological target: T19, 4H697-AA; test: two-hybrid library CCmax; settings: mean of both orientations
T19 chain: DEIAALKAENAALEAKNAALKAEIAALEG

[22] = biological target: T20, 4H3631-AA; test: two-hybrid library CCmax; settings: mean of both orientations
T20 chain: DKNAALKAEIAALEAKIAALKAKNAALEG

[23] = biological target: T21, 4H3588-AA; test: two-hybrid library CCmax
T21 chain: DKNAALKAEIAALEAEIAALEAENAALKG

[24] = biological target: T22, 4H3865-AA; test: two-hybrid library CCmax; settings: mean of both orientations
T22 chain: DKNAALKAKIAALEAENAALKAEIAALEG

[25] = biological target: T23, 4H384-AA; test: two-hybrid library CCmax; settings: mean of both orientations
T23 chain: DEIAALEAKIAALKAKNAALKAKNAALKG

[26] = biological target: T24, 4H3606-AA; test: two-hybrid library CCmax; settings: mean of both orientations
T24 chain: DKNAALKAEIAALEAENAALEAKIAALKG

[27] = biological target: T25, 4H982-AA; test: two-hybrid library CCmax; settings: mean of both orientations
T25 chain: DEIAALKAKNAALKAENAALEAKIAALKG

[28] = biological target: T26, 4H953-bA; test: two-hybrid library CCNG1
T26 chain: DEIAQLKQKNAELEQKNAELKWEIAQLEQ

[29] = biological target: T27, 4H967-bA; test: two-hybrid library CCNG1
T27 chain: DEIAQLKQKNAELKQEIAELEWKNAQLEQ

[30] = biological target: T28, 4H953-bH; test: two-hybrid library CCNG1
T28 chain: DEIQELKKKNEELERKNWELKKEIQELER

[31] = biological target: T29, 4H883-bA; test: two-hybrid library CCNG1
T29 chain: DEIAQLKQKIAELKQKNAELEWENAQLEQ

[32] = biological target: T30, 4H72-bA; test: two-hybrid library CCNG1
T30 chain: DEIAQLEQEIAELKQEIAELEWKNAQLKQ

[33] = biological target: T31, 4H717-bA; test: two-hybrid library CCNG1
T31 chain: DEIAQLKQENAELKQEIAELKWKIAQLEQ

[34] = biological target: T32, 4H908-bA; test: two-hybrid library CCNG1
T32 chain: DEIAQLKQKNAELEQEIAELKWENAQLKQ

[35] = biological target: T33, 4H687-bA; test: two-hybrid library CCNG1
T33 chain: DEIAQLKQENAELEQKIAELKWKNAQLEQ

[36] = biological target: T34, 4H607-bA; test: two-hybrid library CCNG1
T34 chain: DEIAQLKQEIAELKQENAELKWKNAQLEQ

[37] = biological target: T35, 4H797-bA; test: two-hybrid library CCNG1
T35 chain: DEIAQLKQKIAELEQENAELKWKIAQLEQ

[38] = biological target: T36, 4H918-bA; test: two-hybrid library CCNG1
T36 chain: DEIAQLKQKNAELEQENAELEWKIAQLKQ

[39] = biological target: T37, 4H754-bA; test: two-hybrid library CCNG1
T37 chain: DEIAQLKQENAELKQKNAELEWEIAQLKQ

[40] = biological target: T38, 4H967-bH; test: two-hybrid library CCNG1
T38 chain: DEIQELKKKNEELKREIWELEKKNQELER

[41] = biological target: T39, 4H968-bH; test: two-hybrid library CCNG1
T39 chain: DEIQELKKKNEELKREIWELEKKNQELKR

4H_GCN4, sequence (chain, as listed by the source): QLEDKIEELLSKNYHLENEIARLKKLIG

Binder: DKNAALKAEIAALEAKIAALKAKIAALEG [4H3629-AA]
interaction score [1]: -0.964
interaction score [2]: -1.87
interaction score [3]: -0.266
interaction score [4]: -0.761
interaction score [5]: -1.96
interaction score [6]: -2.37
interaction score ([7]; mean of both orientations): -1.46
interaction score [8]: 1.82
interaction score [9]: -1.01
interaction score [10]: -0.576
interaction score [11]: -1.75
interaction score [12]: 0.236
interaction score [13]: -0.119

Binder: DKNAALKAEIAALEAEIAALEAENAALKG [4H3588-AA]
interaction score [19]: 0.71
interaction score [20]: -2.28
interaction score [21]: -1.44
interaction score [22]: -0.285
interaction score [23]: -1.05
interaction score [24]: -1.15
interaction score [25]: 1.38
interaction score [26]: -1.57
interaction score [27]: -1.37

Binder: DEIQELKKKNEELERKNWELKKEIQELER [4H953-bH]
interaction score [30]: -0.129
interaction score [40]: -0.919
interaction score [41]: -1.63

Results, then the binder that gave them:

interaction score [1]: 0.0894
interaction score [2]: -1.15
interaction score [3]: -0.855
interaction score [4]: 0.315
interaction score [5]: -1.43
interaction score [6]: -1.71
interaction score [7]: -0.176
interaction score [9]: -1.28
interaction score [11]: -1.6
interaction score [12]: -0.717
Binder: DEIAALEAKIAALKAKNAALKAENAALKG [4H380-AA]

interaction score [14]: -1.38
interaction score [15]: -1.92
interaction score [16]: -1.29
interaction score [17]: -1.53
interaction score [18]: -0.981
Binder: DEIAALEAEIAALEAKNAALEAKNAALKG [4H56-AA]

interaction score [28]: -0.667
interaction score [29]: -1.29
interaction score [30]: -1.41
interaction score [31]: -1.28
interaction score [32]: -0.746
interaction score [33]: -0.469
interaction score [34]: -0.62
interaction score [35]: -0.84
interaction score [36]: 0.454
interaction score [37]: -0.394
interaction score [38]: -1.07
interaction score [39]: -0.503
Binder: DEIAQLKQEIAELKQENAELKWKNAQLEQ [4H607-bA]
